The supplement of paper PMC9170038

Test system: K4 kissing-loop RNA reporter
Test: apparent KD of K4 kissing-loop reporter; higher = weaker reporter binding
Details: Eterna round: R107
Procedure: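 RNA-MaP round R107: designed RNA switches with theophylline, tryptophan, arginine or FMN aptamers are transcribed on-chip within common flanks. They are titrated with a labelled K4 kissing-loop RNA reporter in RNA-MaP buffer (100 mM Tris pH 7.5, 80 mM KCl, 4 mM MgCl2), without ligand or with the indicated ligand. Median apparent KD per design.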

[1] = input ligand: theophylline 20 uM
[2] = input ligand: tryptophan 2.4 mM
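Further: bound reporter read as fluorescence of individual clusters on recovered sequencing chips by microscopy, with normalized cluster intensities fitted with a binding model.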

| Sequence | apparent KD of K4 kissing-loop reporter (input ligand: FMN 200 uM) [nM] | apparent KD of K4 kissing-loop reporter (input ligand: arginine 13.2 mM) [nM] | apparent KD of K4 kissing-loop reporter (input ligand: none) [nM] | apparent KD of K4 kissing-loop reporter [1] [nM] | apparent KD of K4 kissing-loop reporter [2] [nM] |
| --- | --- | --- | --- | --- | --- |
| UGGUUUAACUGAAGGAGCGGCAAUUGAUAAGUAAAUAUAGUGAUGUUAUAUAAGAUAGAGAGCCAGGUAGGUCGCAGAGGUAUUU [ExArgB.O] | 145 | 147 | 141 | 143 | 141 |
| GGAACUACGACGGCCGCCACUCUGUAUCCCAACGUUAAGGUCCUAACUGCAAGUGAUGUUUGUGCGAGGACCGGGUCUCCCUUGC [theeternabot_exclusion_KL_Trp_B_30] | 258 | 213 | 272 | 218 | 217 |
| CGAGUGAUGUUCGUUCGUUUAUUUCUUUGACAGGAUAUGCGGAAACGCAGAAGGGUCACCUUUGAGUUAAAGGAAUUUACGUUAU [Ex FMN A 26] | 572 | 509 | 599 | 539 | 483 |
| UGUCAUUGGUCGGCCGCCACUAGACGGAUCAUAAGAUCUGUCAAUAAGAGUGAUGUUCUAAAUAAUAGGACCGGGACCGAUGACU [TrypBS 27 #SwitchBubble #StaticStem] | 988 | 653 | 907 | 681 | 647 |
| UGGAGUUGACGAAAAGUCAACUCCCGAGAAGGAGCGGACGAAAGUCCAGGUAGGUCGCUCGCUACCAGUGAUGUUGGUACAUAAA | 101 | 153 | 130 | 147 | 109 |
| UGAUACCAGACGGCCGCCACUCCCGUAAGUCAAAGACUUACGAAGAGGGUUUUUUAGUGAUGUUGGAGGACCGGGUCUGGUAUCU [FiskerMod 18 - Jieux - Exclusion - Tryptophan B] | 618 | 256 | 618 | 653 | 2320 |
| CGUGAAGACCAGAGGUGAUGUAUAGUAUCGCGAGGACCGGUACGGCCGCCACUCGUGAAGAGAAAGGAGUGAUGUUCCGUAAUGG [C12] | 246 | 239 | 312 | 326 | 107 |
| GUAUAUCGAACUGAUACCAGAGAAUAUAGCAGUGAUGUUGCAUAUAUGAAUAAGACUCGACUCCCUUGGCAGCGGGAAGAUAUAC [On purpose 2] | 132 | 169 | 137 | 166 | 142 |
| AACUGUCAAGGAACUUGCAACAAAGGUGAUACCAGCAUCGAAAGAUGCCCUUGGCAGCACCAACUUGCAGUGAUGUUGCAAGUAA [(T)'-(H)'-(T1)-(T2)-(H1)-(H2)_Design7] | 300 | 243 | 322 | 402 | 286 |
| AUUCUAUUGUGAAGGAGCGCGACUAGUAGUGAUGUUACUAUAUGACUUUAGUCUUAAUUCUCGCAGGUAGGUCGCACAAUAUAUA [JR_Nu_SSArginiB_Sub028] | 913 | 594 | 796 | 732 | 755 |
| UGACUGGACUGAAGGAGCGCUAAACUCCUAGUGAUGUUAGGAAAUACGAGACAAAGUCUCGGGCAGGUAGGUCGCAGUCUAGUCU [ArgBS 19 #SwitchBubble #StaticStem] | 122 | 118 | 132 | 128 | 101 |
| AAUGAUCGUAUGGCGAGGUACUCGUGUUCGAAGGAUAUUAAUAGAAUAAGAAGGUCGAAAUCGUGUCUGGAAGUGAUGUUUCCAU [theeternabot_sameState_KL_FMN_A_32] | 111 | 106 | 106 | 123 | 89.6 |
| UGGAGUUGACGAAAAGUCAACUCCUGAGAAGGAGCGGACGAAAGUCCAGGUAGGUCGCUCACUAGCAGUGAUGUUGCUACAUAAA [#OpenEnded 2] | 202 | 211 | 219 | 253 | 208 |
| CUUGGGCUUGCGGCCGCCACUCAAACAUCAUUAAGGAUGGUCCACGGGCAAGUGAUGUUUAUCCGGAGGACCGGGCAUAGCGACA [theeternabot_exclusion_KL_Trp_B_23] | 337 | 270 | 315 | 315 | 342 |
| GCCUAGCAGGGAAGGAGCGCCAUAUAAUUAAAAGGUAAUUAAUGAGUGAUGUUCAAAUAAUGGCAGGUAGGUCGCCCUGCUAGGC [KL-SSArg B10] | 316 | 277 | 283 | 354 | 283 |
| ACUGGGUUGACGAAAGUCAACAAAAGAGAAGGAGCGCACGAAAGUGCAGGUAGGUCGCUCAUUCCAGUGAUGUUGGAUCACCAGA [#SwitchBubble 18 #K4Late] | 242 | 366 | 453 | 279 | 199 |
| UGAUGUUUAGGUCACCCAGUGAUGUUGGAAGGAGCGUGCGAAAGCACAGGUAGGUCGCCAACCUAAAAGUGACCUGAGCAUCUAA [#SwitchBubble 8 #K4Early] | 496 | 210 | 511 | 427 | 846 |
| CAUAGACAAGUGAUGUUUGUCAUAACCGAAGGAGCGUCUUUAAAGACAGGUAGGUCGCGGAUUAAUUAAGUUAUGAUUCUUUUUA [JR_SSArginiA_Sub017] | 630 | 572 | 661 | 642 | 531 |
| ACGUGAAGCGACUCCUAGUUAAACCGGGAAGGAGCGCGGAUAACCGCAGGUAGGUCGCCCGGAAGCCGGACCAGUGAUGUUGGUC [Exclusion Arginine A Gf 26] | 263 | 191 | 207 | 217 | 198 |
| AAGCAGUCACUCGAAGCCAUCGAAGAUGGACGAGGACCGGUACGGCCGCCACUCGGAGUGAUGUUCCGAAGACUGCAAAAUAAAA | 312 | 274 | 296 | 330 | 469 |
| AAGUGAUGUUGUAGUGAUGUUGUGAUGUUGCAGGAUAUAUAGUGAUGUAGAAGGGUAUGUACAGAUUUUUUUUUUGAGUGAUGAU [ffdcmullin] | 83.4 | 37.1 | 64.9 | 48.1 | 66.1 |

| Sequence | apparent KD of K4 kissing-loop reporter (input ligand: FMN 200 uM) [nM] | apparent KD of K4 kissing-loop reporter (input ligand: arginine 13.2 mM) [nM] | apparent KD of K4 kissing-loop reporter (input ligand: none) [nM] | apparent KD of K4 kissing-loop reporter [1] [nM] | apparent KD of K4 kissing-loop reporter [2] [nM] |
| --- | --- | --- | --- | --- | --- |
| AAUUCAAACUGAAGGAGCGAGCAAAUCGGAGUGAUGUUCCAAGCGAGUGAUGUUCGCAUAGCUCAGGUAGGUCGCAGUUUGGAUA [Same State Arginie B GF 13] | 120 | 95.2 | 107 | 101 | 101 |
| AAACGUUGGUCGGAUACCAGCUUGAUCGGAAAACGAUCUGCUGGAGUGAUGUUCCAAUAAAGCCCUUGGCAGCCGACCGACGAAA [MAT - Same State Theophlline B - Mod of Eli - D15] | 662 | 659 | 1030 | 746 | 747 |
| CGACACUCAGCGGCCGCCACUGAGCUAUAUUUUGCAGGUGCCCGAGUAAGUGAUGUUUACUUCGUCAGGACCGGGCUGGUUUCAA [theeternabot_sameState_KL_Trp_B_20] | 514 | 298 | 609 | 294 | 351 |
| AACACCCGCUAUGAUACCAGUGAAGUGAUGUUUUACUCCGGGCGUAAGACAAAGGUCAGCCACCCUUGGCAGCAUAUCCGCGUAU [theeternabot_exclusion_KL_Theo_B_35] | 721 | 418 | 594 | 490 | 440 |
| UCCUAGGCUCGAAAGAGCCUAGGUAAGACUCAGGAUAUCUGGAAACAGAGAAGGGAGCUACUAGUGAUGUUAGGAAUUCCCUAAG | 126 | 97 | 124 | 119 | 106 |
| GGGUUUGACGGAGGAUAUGCACUGAGGAGGAGAAUAUAGUGAUGUUAUAUAAGAGGAAGGAGAAGAGUAGAAGGCCGUUGGGUUU [SSFMNB.L] | 124 | 131 | 139 | 165 | 104 |
| GUUUGGCGGACGGCCGCCACUCGGACGAGUCACAGUGAUGUUGUGGUUUGCCAGUCGACUUCAUCGAGGACCGGGUUUGUCGGGC [Exclusion Tryptophan B GF 20] | 363 | 276 | 395 | 314 | 379 |
| AGAACUGUCUGAGAUACCAGCUAAGGAGUGAUGUUCCUAGCUCCACGAAAGUGGAGCCAUAGCCCUUGGCAGCUCAGACAGUUCA [Omei KL Theo B SS A v6] | 866 | 588 | 1050 | 584 | 747 |
| CCUUCUCUUGAUAGUGAUGUUAUCAAGGGCAAGGAUAUCAUCUUAAUGAGAAGGUGUCCUUGAUAACAUGGAGGUCUGAAACAGA [Omei KL FMN A Exc C v5] | 108 | 186 | 229 | 321 | 335 |
| AAACAUUGGUCUGAUACCAGCUGAUCGGAAACGAUCUUGCUGGAGUGAUGUUCCAAGUAAAGCCCUUGGCAGCAGACCGAUGAAA [MAT - Same State Theophlline B - Mod of Eli - D19] | 108 | 53.3 | 72.6 | 107 | 81.8 |
| GUCCAAACACAGUGAUGUUGUGAAUAUGAAGGAGCGGACGAAAGUCCAGGUAGGUCGCAUAAAGGACACCUACGAAAAGUAGGAA [#SwitchBubble 5 #K4Early] | 172 | 201 | 228 | 222 | 159 |
| GGAGUUACCUGGGAUACCAGUCGGAGUCUCAGAGCACAGAGUGAUGUUCUGGGAUGUUUCGGCCCUUGGCAGCUCUGGGACUCCA [#2 Exclusion - Theophylline B Attempt #14 (HarryS)] | 386 | 359 | 403 | 265 | 351 |
| CGCAGUGAUGUUGCGAGUAACUACAGGGAAGGAGCGUGCUAAAGCACAGGUAGGUCGCCCAUGCAGUGAUGUUGUGUAAAAGGGU [Excluson Arginine A GF 13] | 102 | 98.6 | 106 | 118 | 90.8 |
| AAGGUAUCUAGAUGCUAGCAACAACUAGAUACCAGCAUCGAAAGAUGCCCUUGGCAGCUAGCAGUGAUGUUGCUAGCAAUAAGAA [Design4] | 152 | 130 | 131 | 158 | 131 |
| AUGUAUGAAUUAGGAUAUCGUGAGCCUUGCAUAUAUAUGAUAAAUGGAUAUGUCGUAGUGAUGUUACGAGAAGGAGUGUGGAGUA [KL-XFMN-B4] | 45 | 61.6 | 45.5 | 71.2 | 39.1 |
| GAGGUACAGCUGGCCGUCGAAUUGUCCGAUACCAGACACUCUCUAGUCCCUUGGCAGCGGUGGUAAGUGAUGUUUACAGGCGCCG [theeternabot_exclusion_KL_Theo_A_3] | 152 | 104 | 147 | 122 | 126 |
| CGCAGUGAUGUUGCGAGUAGCUACAGGGAAGGAGCGUGCUAGAGCACAGGUAGGUCGCCCAGUGGCAGUGAUGUUGCCAACGGGU [Exclusion ARginine A GF 18] | 132 | 110 | 110 | 104 | 109 |
| AUAUUUAUUUAGUCACUUUUAAUAUUAUGUCAGGAUAUCGUAAUUUCGAGAAGGGACUCAUGCUAGUGAUGUUAGCUAAUUCUCA [JR_Nu3_ExcFMNA_Sub023] | 102 | 161 | 135 | 160 | 110 |
| GCAUCCAUGGCAGGAUAUAGGUUCAUGGAGUGAUGUUCCAUAACCCGAGUGAUGUUCGUUAUCCACCUAGAAGGGCCAUGGAUGC | 208 | 173 | 206 | 196 | 180 |
| AUACACGUUGCGGCCGCCACUUCGAUUAGUGAUGUUAGGUGUAAGCAGGCGCUGCAUUAAUGUGAAAGGACCGGGCAGAGUAAGC [theeternabot_exclusion_KL_Trp_B_39] | 203 | 114 | 160 | 206 | 148 |
| UCCUGCAAUGGACCACGAAAGUGGAUCGAUACCAGAGUCGAAAGACUCCCUUGGCAGCGAGUGAUGUUCGAAGCAGGUAAAUAAA [#SwitchBubble 21 #K4Late] | 492 | 483 | 478 | 410 | 358 |
